This assay deals with H-OspA, freshly biotinylated (Borrelia bavariensis strain SKT-7.1). Description: BLI; BLItz; biotinylated H-OspA on streptavidin biosensors (250 μg/mL, 150 s); soluble sdAb at 7.25, 14.5 and 29 μM; 120 s association, 120 s dissociation; PBS-T, 0.02% Tween-20; global fitting (1:1).

B1: Soluble sdAb produced from PhC11 (VHH)
VHH: QVEVVASGGGLVQAGESLRLSCTASGFTFDNVAAGWFRQAPGKEREGVACISKNGRTTDSADSVKGRFTISRDTAKNTVYLQMDKLKVEDTAEYYCAATYLNTCVLSSPPENIHYWGKGTQVTVS
What is called koff is a measure of how fast the partners let go of each other. Usually kon stands for the second-order rate constant of association. As to B1, the koff amounted to 0.0586 s⁻¹ and the kon turned out to be 13700 M⁻¹ s⁻¹.

B2: Soluble sdAb produced from PhC12 (VHH)
VHH: RREVVESGGGLVQPGESLRVACAASGFTVSSYIMHWVRQAPGKGLEWVSYIDHGGNTVYGDSVKGRFTISRDNAKNTLALQMNSLKPEDTALYYCVRDGDNTHFVAYDYWGQGTLVTVS
With B2, the koff was determined as 0.146 s⁻¹ and the kon was determined as 185 M⁻¹ s⁻¹.

(Values after paper PMC5259998.)
